“And” between values parts separate entries of the source, which are not always exact repeats. Equal entries are not always repeated.

The data set deals with the molecule itself. In words: crystal structure; crystals grown from the HAP2-scFv A20 complex, sitting drop, 293K, 0.2M LiSO4, 0.1M Tris-HCl pH 8.5, 25% w/v PEG 5000 MME; space group P6_(3)22, 2.6 Å; no density for the scFv.

B1: Chlamydomonas reinhardtii HAP2 ectodomain (residues 23-592) (domain or fragment)
chain: EVIASGRLEKCVVDGVTEELDCQEKVVVTLTVGNGQSLQTEALEFSLSCLNSPDGRCPCSCSAADPTCACRDLAAPLRVSLTKSPLWASYPLQYLSSFNWKPLEVILRPSNKVCKDGDWEDSPTCGWFSQGGVRVADSQGFCCECSSSQVWDDTFGSSKERTRANLDCDFWSDPLDILIGRKPVSAHCLTFDPQWYSGYELGAASLQFEIAITVEVPTAPSPTTATTSATPRTNNSSSANSTNSTNSPAPQFLSPPAPSTREVLHLGPSVPLASSASRLLSAKLLGDLAMYTQLPAISNQVLMVPQPPAAAAATGSPLDATLATNRSAWMLLDKTMLSMDGLACDKVGTGFSAFRYQPSGCGRAPQACLSGQLKDLWEADLARIADGRVPLYMITRFTGGSDTTLQSFSGGPLSFALPVTSHSQSLVTLSVAADGVRLVTNRSPGKITGAAVCRFAGTSCGGFEAVAARGYIYVNITNTGRLDSDYTLTVSNCSSNVRPIEARTLAVRAGSAASLDPPMELYVEDQAAAAARTCTVSLYDSVGAVTDSLTLSFYTNATQLVVKPSGGYNGDDDDK
modifications: N-linked glycan attached to Asn578; further N-linked glycans marked in Figure 1C
notes: HAP2, Chlamydomonas reinhardtii, Uniprot A4GRC6, soluble C-terminally truncated ectodomain, residues 23-592, ending at G592; enterokinase cleavage site immediately downstream of HAP2 G592, before the double strep-tag; Secreted from the vector pMT/BiP/TwinStrep; The strep tag was removed with enterokinase; Trimer in the crystal; trimers, hexamers and remaining monomers in solution; also called …
Turning to B1, the stoichiometry N (usually a count of units in the complex or per binding partner) was 3 and 6.

(Values after PMC6327110, “Species-Specific Functional Regions of the Green Alga Gamete Fusion Protein HAP2 Revealed by Structural Studies” (Structure(London, England:1993), 2019).)
